This note sets out measurements from doi:10.1101/2022.09.05.506711, “New structures of Class II Fructose-1,6-Bisphosphatase from Francisella tularensis suggest a novel catalytic mechanism for the entire Class” (bioRxiv, 2022).

This data set deals with the molecule itself. In words: crystal structure.

One may read the stoichiometry N as the number of molecules, sites or subunits per partner or assembly.

B1: Mycobacterium tuberculosis class II fructose-1,6-bisphosphatase (enzyme)
chain: MELVRVTEAGAMAAGRWVGRGDKEGGDGAAVDAMRELVNSVSMRGVVVIGEGEKDHAPMLYNGEEVGNGDGPECDFAVDPIDGTTLMSKGMTNAISVLAVADRGTMFDPSAVFYMNKIAVGPDAAHVLDITAPISENIRAVAKVKDLSVRDMTVCILDRPRHAQLIHDVRATGARIRLITDGDVAGAISACRPHSGTDLLAGIGGTPEGIIAAAAIRCMGGAIQAQLAPRDDAERRKALEAGYDLNQVLTTEDLVSGENVFFCATGVTDGDLLKGVRYYPGGCTTHSIVMRSKSGTVRMIEAYHRLSKLNEYSAIDFTGDSSAVYPLP
notes: also called MtFBPaseII; MtFBPase
With B1, the “stoichiometry N” value was 4.
